Measurements from patent US20200206304A1, “METHODS AND COMPOSITIONS FOR EFFICIENT DELIVERY THROUGH MULTIPLE BIO BARRIERS” (Cedars-Sinai Medical Center, priority 2017, published 2020).
Like-named read-outs stand apart in the source and are kept apart here. Square brackets hold non-standard residues; d marks the D form. Ends that are not written are not given here.

Columns and labels:
[1] = Zeta potential measurements (Zetasizer Nano ZS90); format: physicochemical; conditions: in PBS; voltage 150 mV
Experimental: Zeta Potential Measurements: Synthesized conjugates were characterized with respect to their ζ potential using a Zetasizer Nano ZS90 (Malvern Instruments, Malvern, UK). Ten microliter aliquots of nanoconjugate samples were diluted in 0.99 mL PBS, and the voltage applied was 150 mV. Data represent the mean of three measurements±their standard deviation.

[2] = biological target: amyloid β (Aβ) plaques (UniProt P05067); assay: in vivo labelling of Aβ plaques after i.v. injection of rhodamine-labelled conjugate into APPswe/PS1ΔE9 AD mice, dose 8X; fluorescence microscopy of brain sections
[3] = biological target: T1, Aβ plaque (Homo sapiens, UniProt P05067); assay: Percentage of total plaques labeled by mini nanodrugs in AD mice; format: in vivo,  (B6.Cg-Tg (APPswe/PS1ΔE9) 85Dbo/J hemizygous) mice
T1 construct: tissue Jackson Laboratories; host or cells: brain of 6-8 month old APPswe/PS1ΔE9 transgenic mice, plaques labelled in vivo after iv injection and counterstained on sections
Experimental: Slides were air dries and fixed using freshly diluted 2% PFA for 5 minutes. The PFA was washed 3 timed with PBS, and brains were covered with 70% EtOH for 5 minutes before washing with dH2O for 2 minutes. 1× Amylo-Glo (Biosenses, #TR-300-AG 100×, diluted with PBS) was then added for 10 minutes. The slides were then washed with PBS (5 minutes) and dH2O (15 seconds) and mounted (Fluoromount-G, No DAPI, Invitrogen), and stored at 4° C. prior to imaging.
Brains were collected and preserved in OTC for immunostaining.

[4] = tested on: Brain (other hemisphere); conditions: 2 h, PBS background subtracted
[5] = tested on: blood-brain barrier (BBB); conditions: transgenic mice vs normal mice, doses 2×-8×
Experimental: AD-Mouse models: 6-8 month old […] (B6.Cg-Tg (APPswe/PS1ΔE9) 85Dbo/J hemizygous) mice were obtained from Jackson Laboratories. Mouse maintenance and experimental procedures followed the guidelines established by the Cedars Sinai Institutional Animal Care and Use Committee (IACUC Protocol #7416). Three to four mice of each sex were used for each experiment. Nanoconjugates were dissolved freshly in PBS (pH 7.4) prior to each experiment and injected intravenously (i.v.) into the lateral tail vein. […] Mice were anesthetized with isoflurane beforehand and their tails were briefly warmed to facilitate injections. The drug injection volume was kept constant at 150 μL. After each injection, mice were promptly returned to their cages. Brains were collected and preserved in OTC for immunostaining.
The brains were harvested and a 14 μm thick slices which were fixed and stained with DAPI to envision the nuclei
A comparison with normal brain was beneficial for understanding of the development of Alzheimer's disease.

[6] = tested on: glioblastoma GL261; conditions: mouse, in vivo
[7] = tested on: brain parenchyma; conditions: cortex; 0.274 μmol/Kg
Experimental: To determine how nanoconjugate-associated fluorescence relates to the anatomy of the vasculature, the distance of each analyzed ROI was manually measured from the nearest blood vessel wall (using line tool in FIJI). For tumor bearing mice, 5 images per tumor tissue and 5 per brain tissue were analyzed for each mouse. Intensity values were then plotted against the location of the blood vessel wall and summarized in scatterplots (e.g., FIG. 14B).
Drug concentrations are listed with regard to total nanoconjugate content systemically injected. […] Referring to FIG. 14B, fluorescence measurements were obtained from 10 μm^2-sized regions of interest (ROI) that were randomly overlaid on regions devoid of vasculature shown as yellow squares on photograph 1 of FIG. 14A. Intensity measurements and positions were then obtained for each ROI and plotted against the location of the nearest blood vessel wall. FIG. 14C is set of charts: chart 1—Cortex; chart 2—Midbrain and chart 3 Hippocampus, illustrating average nanoconjugate fluorescence in the brain parenchyma measured following injections at four different drug concentrations. In this figure, fluorescence is shown as relative fluorescence, which is the measured nanoconjugate fluorescence after subtraction of autofluorescence imaged from PBS injected animals using similar acquisition settings.
FIG. 14B explores this relationship in a plot from all of the measurements (for each condition: 4 mice, 3-4 sections with 20 random measurements each). All fluorescence intensity measurements were conducted with 10 μm^2-sized regions of interest placed outside of tomato-lectin stained blood vessels (ROI as in Photograph 1 of FIG. 14A); the positions of these ROIs were then measured against the location of the nearest blood vessel wall to produce the scatterplot in FIG. 14B.
The resulting data were used as a metric to examine how well the mini nanodrug was able to travel from the vessels into the surrounding parenchyma and encounter brain cells. […] Nanoconjugate diffused fluorescence intensity vs. ‘distance from vasculature’ measurements in brain parenchyma of mice injected with nanoconjugates at a dose of 0.274 μmol/Kg. Fluorescence measurements were obtained from […] regions of interest (ROI) that were randomly overlaid on regions devoid of vasculature (shown by yellow squares in FIG. 22A). Intensity measurements and positions were then obtained for each ROI and plotted against the location of the nearest blood vessel wall.

[8] = tested on: brain cells; conditions: 0.274 μmol/kg
Experimental: For the particulate fluorescence analysis, images were converted to binary images, and then 5 ROIs 20*20 μm^2 were drawn per image. The area of each particle on the ROI was measured using the Image) particle analysis tool, where each particle was measured separately. Sizes were then summarized, sorted, and further analyzed using Minitab18 software (Minitab, Inc, State College, Pa., USA). Particulate areas observed between different conditions were compared via a one-way ANOVA combined with post-hoc Tukey tests to test differences between each experimental group.
A more reliable method to separate the particulate from the cellular fluorescence was reasoned to be by adjusting the levels of the image and converting it to a binary image, allowing the detection of only particulates eliminating interference of the diffused background. FIGS. 29A-29D illustrate intracellular fluorescence of mini nanodrugs.
Each ROI was converted to binary (black and white) image and the area and number of particles were quantified. 3 images per brain area were tested for 3 mice per group.
The particle content (example of ROI in FIG. 29A) then was measured. The average size of the particulate fluorescence is a proxy to estimate the intracellular load of fluorescent nanoconjugates following their injections. An example of such an analysis is shown in FIG. 29A: the yellow squares indicate regions of interest that were used to quantify particulate fluorescence. FIGS. 29B-29C summarize the average size of the intracellular fluorescence particles in the cortex ([…]), midbrain (FIG. 29C), and the hippocampus (FIG. 29C).

[9] = tested on: neurons; conditions: 0.274 μmol/Kg, vs PBS
[10] = tested on: neurons and astroglia; conditions: for % of positive cells, Cortex astroglia: astroglia (GFAP); for % of positive cells, Cortex neurons: neurons (Neun)
Experimental: Neuronal and glial counterstaining: In FIGS. 27A-27C, brain tissue from drug-injected mice was counterstained to determine if our nanoconjugates are taken up by neurons or glia. Cryosections ([…]) were air-dried for 10 min, fixed with 2% paraformaldehyde for 5 min, and then rinsed three times with PBS. […] The antibodies anti-Neun (Abcam, Cambridge, Mass., USA; AB104225) and anti-GFAP (Neuromics, Edina, Minn., USA; C1122102) were then diluted 1:500 in PBS-T and tissue sections incubated simultaneously with antibody solutions overnight at 4° C. in a humid chamber. Tissue sections were then washed five times with PBS-T and incubated in appropriate secondary antibody diluted 1:250 in PBS-T, for 2-4 h. After five washes in PBS at room temperature, sections were mounted between coverslips in Fluoromount-G with DAPI.
To this end, after systemic injection of our D-conjugates we counterstained brain tissue sections of hippocampus and cortex with anti-Neun to label neurons, and with anti-GFAP to label astroglia (FIGS. 27A-27C) and inspected the stained sections for red fluorescent particulates. […] Positive neurons and glia cells were counted after systemic injection of conjugates containing D1, D3, AC189 peptides, and of a control PBS (FIGS. 27A-27C).

[11] = biological target: low density lipoprotein receptor-related protein-1 (LRP-1) (mouse (endogenous receptor of the injected BALB/C mice)) (UniProt Q91ZX7); assay: cell-based or functional assay
[12] = injected dose 8X (0.55 μmol/Kg)

T1 sequence (P05067 672-713 limits assumed): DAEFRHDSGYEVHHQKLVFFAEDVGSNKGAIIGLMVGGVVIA
Sequence of amyloid β (Aβ) plaques (P05067 672-713): as the sequence (P05067 672-713 limits assumed) above
Sequence of low density lipoprotein receptor-related protein-1 (LRP-1) (mouse (endogenous receptor of the injected BALB/C mice)) (Q91ZX7 20-4545): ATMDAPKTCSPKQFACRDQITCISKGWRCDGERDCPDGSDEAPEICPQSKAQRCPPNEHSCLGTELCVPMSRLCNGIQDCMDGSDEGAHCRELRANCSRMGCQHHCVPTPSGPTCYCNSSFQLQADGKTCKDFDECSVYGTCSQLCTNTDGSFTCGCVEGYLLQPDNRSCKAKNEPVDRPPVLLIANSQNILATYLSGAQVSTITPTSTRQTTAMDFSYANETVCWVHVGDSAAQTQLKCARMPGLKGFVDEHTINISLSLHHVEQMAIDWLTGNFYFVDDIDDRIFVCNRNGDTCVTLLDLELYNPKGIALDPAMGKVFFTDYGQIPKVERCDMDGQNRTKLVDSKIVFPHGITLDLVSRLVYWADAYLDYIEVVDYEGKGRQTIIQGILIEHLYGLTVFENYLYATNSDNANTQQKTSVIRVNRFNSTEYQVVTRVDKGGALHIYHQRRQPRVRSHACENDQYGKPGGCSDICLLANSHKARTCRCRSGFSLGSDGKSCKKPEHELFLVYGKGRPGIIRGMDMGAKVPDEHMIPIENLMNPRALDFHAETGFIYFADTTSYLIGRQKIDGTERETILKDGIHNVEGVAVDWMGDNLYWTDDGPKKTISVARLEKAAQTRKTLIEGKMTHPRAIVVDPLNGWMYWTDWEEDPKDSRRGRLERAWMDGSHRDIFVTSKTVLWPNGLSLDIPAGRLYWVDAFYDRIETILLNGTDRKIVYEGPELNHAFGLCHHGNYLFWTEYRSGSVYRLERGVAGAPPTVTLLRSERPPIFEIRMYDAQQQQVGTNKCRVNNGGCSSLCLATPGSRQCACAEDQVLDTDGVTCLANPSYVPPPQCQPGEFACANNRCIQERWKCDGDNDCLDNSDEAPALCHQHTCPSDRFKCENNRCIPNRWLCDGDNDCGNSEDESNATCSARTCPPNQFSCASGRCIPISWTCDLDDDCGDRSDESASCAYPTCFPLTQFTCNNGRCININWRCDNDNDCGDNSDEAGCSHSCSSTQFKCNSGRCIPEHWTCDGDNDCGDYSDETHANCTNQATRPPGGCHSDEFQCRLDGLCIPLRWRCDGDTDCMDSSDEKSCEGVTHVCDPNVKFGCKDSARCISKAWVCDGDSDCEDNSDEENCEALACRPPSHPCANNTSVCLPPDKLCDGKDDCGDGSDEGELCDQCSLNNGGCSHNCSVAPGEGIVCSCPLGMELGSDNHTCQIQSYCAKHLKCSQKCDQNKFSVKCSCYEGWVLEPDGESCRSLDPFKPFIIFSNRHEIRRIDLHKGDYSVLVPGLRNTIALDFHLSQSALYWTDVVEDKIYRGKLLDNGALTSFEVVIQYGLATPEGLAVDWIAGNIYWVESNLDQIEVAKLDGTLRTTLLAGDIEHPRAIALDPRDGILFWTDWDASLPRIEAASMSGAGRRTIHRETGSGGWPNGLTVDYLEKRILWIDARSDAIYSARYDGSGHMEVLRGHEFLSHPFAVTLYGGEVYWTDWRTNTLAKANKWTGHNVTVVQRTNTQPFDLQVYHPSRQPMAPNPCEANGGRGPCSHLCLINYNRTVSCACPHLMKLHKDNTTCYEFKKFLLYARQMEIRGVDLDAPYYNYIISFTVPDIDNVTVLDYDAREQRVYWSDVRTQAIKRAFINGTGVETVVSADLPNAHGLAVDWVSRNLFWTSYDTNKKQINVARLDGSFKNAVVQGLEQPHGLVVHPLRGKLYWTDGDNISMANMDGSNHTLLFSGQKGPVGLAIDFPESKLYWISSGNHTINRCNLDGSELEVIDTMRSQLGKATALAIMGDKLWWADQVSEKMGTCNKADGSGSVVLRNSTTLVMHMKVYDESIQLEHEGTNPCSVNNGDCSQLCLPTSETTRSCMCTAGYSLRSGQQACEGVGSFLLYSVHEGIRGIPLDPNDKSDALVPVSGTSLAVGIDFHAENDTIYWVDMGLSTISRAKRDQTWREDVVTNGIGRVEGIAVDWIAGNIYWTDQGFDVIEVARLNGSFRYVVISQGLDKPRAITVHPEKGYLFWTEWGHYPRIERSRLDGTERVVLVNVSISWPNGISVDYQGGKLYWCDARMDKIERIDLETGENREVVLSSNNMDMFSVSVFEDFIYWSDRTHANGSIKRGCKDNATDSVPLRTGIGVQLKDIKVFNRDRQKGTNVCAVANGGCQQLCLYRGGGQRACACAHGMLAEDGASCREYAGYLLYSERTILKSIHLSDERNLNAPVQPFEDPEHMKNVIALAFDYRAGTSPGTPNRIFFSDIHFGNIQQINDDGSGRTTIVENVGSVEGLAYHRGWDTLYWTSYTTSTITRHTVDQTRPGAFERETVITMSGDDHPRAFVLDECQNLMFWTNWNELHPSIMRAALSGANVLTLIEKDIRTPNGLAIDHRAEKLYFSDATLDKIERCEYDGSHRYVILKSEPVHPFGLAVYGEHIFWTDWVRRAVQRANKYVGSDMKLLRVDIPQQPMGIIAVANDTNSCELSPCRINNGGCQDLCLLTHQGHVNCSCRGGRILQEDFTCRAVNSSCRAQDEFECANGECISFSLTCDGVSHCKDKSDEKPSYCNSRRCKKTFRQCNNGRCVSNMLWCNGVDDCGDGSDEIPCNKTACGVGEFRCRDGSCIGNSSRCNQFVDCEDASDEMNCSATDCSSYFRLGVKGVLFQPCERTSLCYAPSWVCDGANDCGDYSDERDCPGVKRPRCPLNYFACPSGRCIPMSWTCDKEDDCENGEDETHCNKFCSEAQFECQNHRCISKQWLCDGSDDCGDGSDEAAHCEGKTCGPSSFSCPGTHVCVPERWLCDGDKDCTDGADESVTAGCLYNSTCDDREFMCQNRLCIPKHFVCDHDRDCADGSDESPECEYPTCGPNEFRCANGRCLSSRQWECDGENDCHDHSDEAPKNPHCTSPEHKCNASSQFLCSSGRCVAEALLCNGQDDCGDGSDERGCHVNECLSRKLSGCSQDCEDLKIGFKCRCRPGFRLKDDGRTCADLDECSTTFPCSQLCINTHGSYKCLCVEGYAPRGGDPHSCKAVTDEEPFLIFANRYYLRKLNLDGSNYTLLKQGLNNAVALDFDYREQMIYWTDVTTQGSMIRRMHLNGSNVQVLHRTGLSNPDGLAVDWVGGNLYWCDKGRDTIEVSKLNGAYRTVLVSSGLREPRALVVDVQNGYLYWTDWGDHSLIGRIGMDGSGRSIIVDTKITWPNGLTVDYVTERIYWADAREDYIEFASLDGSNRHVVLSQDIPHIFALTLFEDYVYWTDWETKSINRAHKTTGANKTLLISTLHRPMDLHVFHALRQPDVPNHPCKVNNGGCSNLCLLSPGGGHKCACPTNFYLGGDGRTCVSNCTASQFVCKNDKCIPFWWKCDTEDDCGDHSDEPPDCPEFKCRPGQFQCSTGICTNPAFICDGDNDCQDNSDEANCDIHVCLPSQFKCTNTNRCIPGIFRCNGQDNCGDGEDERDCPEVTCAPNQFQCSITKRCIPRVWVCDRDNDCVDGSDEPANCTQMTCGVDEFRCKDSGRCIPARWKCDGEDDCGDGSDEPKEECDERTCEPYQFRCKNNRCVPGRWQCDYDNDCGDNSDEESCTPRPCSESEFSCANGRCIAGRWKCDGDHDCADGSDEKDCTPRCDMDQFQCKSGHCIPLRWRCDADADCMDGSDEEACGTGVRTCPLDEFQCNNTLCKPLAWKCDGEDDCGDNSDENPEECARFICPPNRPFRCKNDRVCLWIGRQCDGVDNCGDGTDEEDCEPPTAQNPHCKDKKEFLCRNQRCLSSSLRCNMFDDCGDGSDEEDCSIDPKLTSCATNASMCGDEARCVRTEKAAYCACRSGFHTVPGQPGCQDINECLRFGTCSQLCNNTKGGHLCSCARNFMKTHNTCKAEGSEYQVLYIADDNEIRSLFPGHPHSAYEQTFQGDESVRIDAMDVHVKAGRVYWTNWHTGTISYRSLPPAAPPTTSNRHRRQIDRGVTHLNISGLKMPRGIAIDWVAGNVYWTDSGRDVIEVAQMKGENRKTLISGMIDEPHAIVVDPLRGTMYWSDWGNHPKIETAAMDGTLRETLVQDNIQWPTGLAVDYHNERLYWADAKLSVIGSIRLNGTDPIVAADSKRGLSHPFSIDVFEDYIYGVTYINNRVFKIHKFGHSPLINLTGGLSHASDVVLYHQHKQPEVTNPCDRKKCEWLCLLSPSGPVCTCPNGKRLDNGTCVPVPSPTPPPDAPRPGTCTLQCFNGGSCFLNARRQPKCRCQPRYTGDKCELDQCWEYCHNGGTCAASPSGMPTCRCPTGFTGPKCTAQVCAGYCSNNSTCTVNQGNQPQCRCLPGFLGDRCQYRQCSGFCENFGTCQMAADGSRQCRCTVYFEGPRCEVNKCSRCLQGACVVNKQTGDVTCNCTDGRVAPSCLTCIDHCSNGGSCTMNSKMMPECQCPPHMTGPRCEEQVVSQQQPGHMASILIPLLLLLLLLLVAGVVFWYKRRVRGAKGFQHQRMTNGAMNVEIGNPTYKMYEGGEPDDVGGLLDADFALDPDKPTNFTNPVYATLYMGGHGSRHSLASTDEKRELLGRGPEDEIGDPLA

Molecule: PMLA/LLL/AP2/Miniap4/rhodamine [P/LLL/AP2/M4]
- ζ potential [1]: −5.5 mV

Molecule: PMLA/LLL/AP2/rhodamine
- Percentage of total plaques labeled by the reagents [2]: 1.23%

Molecule: PMLA/LLL/B6/rhodamine
- Percentage of total plaques labeled by the reagents [2]: 3.3%

Molecule: PMLA/LLL/B6/rhodamine (peptide 1 CGHKAKGPRK; peptide 2 Leu-Leu-Leu; also: conjugated to polymalic acid (PMLA), rhodamine label) [P/LLL/B6]
- Percentage of total plaques labeled by the reagents [3, 12]: 3.3%
- Brain (other hemisphere) fluorescence ([4]; dose 1X): 1.2
- Brain (other hemisphere) fluorescence ([4]; dose 4X): 6.8
- BBB permeation efficacy in AD brain (in words) [5]: A decrease was not observed
- ζ potential [1]: −6.1 mV
- dose-dependent change of tumor fluorescence between 1× and 4× [6]: 23 fold

Molecule: PMLA/LLL/D1/rhodamine (peptide 1 QSHYRHISPAQVC; peptide 2 Leu-Leu-Leu; not fully specified) [P/LLL/D1]
- cortex Y intercepts of fluorescence vs distance curves (exponential fits) [7]: 21.6
- Percentage of total plaques labeled by the reagents [3, 12]: 0%
- Brain (other hemisphere) fluorescence ([4]; dose 4X): 5.3
- increase of particle diameter in comparison with PBS [8]: 2.5 fold
- average fluorescence per neuron nucleus (in words) [9]: significantly higher than for PBS
- #Labeled/#total counted cells, Cortex astroglia [10]: [5/40]
- % of positive cells, Cortex astroglia [10]: 12.5%
- #Labeled/#total counted cells, Cortex neurons [10]: [119/141]
- % of positive cells, Cortex neurons [10]: 84.4%
- #Labeled/#total counted cells, Hippocampus astroglia [10]: [4/57]
- % of positive cells, Hippocampus astroglia [10]: 7.0%
- #Labeled/#total counted cells, Hippocampus neurons [10]: [286/433]
- % of positive cells, Hippocampus neurons [10]: 66.0%
- Tumor fluorescence [6]: 86.6
- ratio Tumor/Brain [6]: 16.4

Molecule: PMLA/LLL/D3/rhodamine (peptide 1 RPRTRLHTHRNRC; peptide 2 Leu-Leu-Leu; not fully specified (some residues)) [P/LLL/D3]
- cortex Y intercepts of fluorescence vs distance curves (exponential fits) [7]: 21.1
- Percentage of total plaques labeled by the reagents ([3]; injected dose 2X): 0% all in a single box
- Percentage of total plaques labeled by the reagents ([3]; injected dose 4X): 0%
- Percentage of total plaques labeled by the reagents ([3]; injected dose 6X): 0%
- Percentage of total plaques labeled by the reagents [3, 12]: 21.1%
- Brain (other hemisphere) fluorescence ([4]; dose 4X): 7.8
- increase of particle diameter in comparison with PBS [8]: 2.5 fold
- average fluorescence per neuron nucleus (in words) [9]: significantly higher than for PBS
- #Labeled/#total counted cells, Cortex astroglia [10]: [7/46]
- % of positive cells, Cortex astroglia [10]: 15.2%
- #Labeled/#total counted cells, Cortex neurons [10]: [286/300]
- % of positive cells, Cortex neurons [10]: 95.3%
- #Labeled/#total counted cells, Hippocampus astroglia [10]: [14/47]
- % of positive cells, Hippocampus astroglia [10]: 29.8%
- #Labeled/#total counted cells, Hippocampus neurons [10]: [894/967]
- % of positive cells, Hippocampus neurons [10]: 92.45%
- Tumor fluorescence [6]: 92.6
- ratio Tumor/Brain [6]: 11.9

Molecule: PMLA/LLL/M4/rhodamine (peptide 1 KAPETALD; peptide 2 Leu-Leu-Leu; not fully specified) [P/LLL/M4]
- Percentage of total plaques labeled by the reagents [3, 12]: 0%
- Brain (other hemisphere) fluorescence ([4]; dose 4X): 3.8
- ζ potential [1]: −10.4 mV
- Tumor fluorescence [6]: 86.2
- ratio Tumor/Brain [6]: 22.8

Molecule: PMLA/LLL/rhodamine
- Percentage of total plaques labeled by the reagents [2]: 4.5%

Molecule: PMLA/LLL/rhodamine (Leu-Leu-Leu; also: conjugated to PMLA with rhodamine, link not given here) [P/LLL, polymalic acid with tri-leucine (40%) and rhodamine]
- Percentage of total plaques labeled by the reagents [3, 12]: 4.5%

Molecule: PMLA/M4/rhodamine (KAPETALD; not fully specified) [P/M4]
- ζ potential [1]: −14.6 mV

B1: PMLA/LLL/D1/rhodamine (peptide)
peptide 1: [dQ][dS][dH][dY][dR][dH][dI][dS][dP][dA][dQ][dV]C
peptide 2: Leu-Leu-Leu
modifications: not fully specified (some residues, N-terminus); also: LLL amide-linked to PMLA carboxylates
- P/LLL/D1/rh fluorescence intensity in the brain parenchyma (BBB crossing) on co-injection of a 70-fold molar excess of AP2 [11]: 54.5%
- P/LLL/D1/rh fluorescence intensity in the parenchyma (transcytosis) with 21 µmol/kg free AP2 [11]: 50%
